Experiments:
[1] = target: T1, cCD137-mFc-Avi (cynomolgus monkey); experiment: SPR, antibody captured via anti-human Fc, dimeric antigen flowed, 1:1 fit
T1 construct: 139 used; also called cyno CD137-mFc-Avi; recombinant cyno CD137
T1 chain: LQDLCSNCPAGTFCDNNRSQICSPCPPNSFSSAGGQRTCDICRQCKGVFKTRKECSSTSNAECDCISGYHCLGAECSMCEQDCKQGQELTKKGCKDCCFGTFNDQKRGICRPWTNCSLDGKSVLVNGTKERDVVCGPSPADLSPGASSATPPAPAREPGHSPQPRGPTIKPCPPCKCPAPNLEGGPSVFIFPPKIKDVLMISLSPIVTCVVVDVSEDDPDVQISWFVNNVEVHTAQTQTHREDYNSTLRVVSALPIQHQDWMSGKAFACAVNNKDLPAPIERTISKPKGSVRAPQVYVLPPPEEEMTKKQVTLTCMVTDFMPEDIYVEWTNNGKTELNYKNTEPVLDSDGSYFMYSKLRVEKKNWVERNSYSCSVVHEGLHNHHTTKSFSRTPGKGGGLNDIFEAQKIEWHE
Experimental: (§1) For CD137 affinity determination, a Biacore CM5 chip (GE Healthcare) was coated with anti-human Fc using a Human Antibody Capture Kit (GE Healthcare) according to manufacturer's conditions, to a surface density of approximately 4000 RU. […] Human or cynomolgus CD137 (hCD137-mFc-Avi or cCD137-mFc-Avi) was flowed over at a range of concentrations in a three-fold dilution series starting at 200 nM, at a flow rate of 70 μl/min. The association time was 2 min and the dissociation time was 8 min. Running buffer was HBS-EP (GE Healthcare BR100188). Flow cells were regenerated by injecting 3M magnesium chloride at a flow rate of 30 μl/min for 30 seconds.
(§2) The binding kinetics were fit with a 1:1 Langmuir model to generate binding association (kₐ) and dissociation (kd) rates. Equilibrium binding constants (KD) were calculated by dividing the dissociation rate by the association rate for each sample. Data analysis was performed with BiaEvaluation software version 3.2.

[2] = target: T2, hCD137-mFc-Avi (human); experiment: as above
T2 construct: Dimer; a biotinylated version was used where the text says so; also called human CD137-mFc-Avi; hCD137-mFc-Avi-Bio
Experimental: as §1, §2

[3] = target: human CD137 expressed on DO11.10 cells (DO11.10-hCD137) (human, UniProt Q07011 24-255); experiment: cell-based or functional assay
Sequence of human CD137 expressed on DO11.10 cells (DO11.10-hCD137) (Q07011 24-255): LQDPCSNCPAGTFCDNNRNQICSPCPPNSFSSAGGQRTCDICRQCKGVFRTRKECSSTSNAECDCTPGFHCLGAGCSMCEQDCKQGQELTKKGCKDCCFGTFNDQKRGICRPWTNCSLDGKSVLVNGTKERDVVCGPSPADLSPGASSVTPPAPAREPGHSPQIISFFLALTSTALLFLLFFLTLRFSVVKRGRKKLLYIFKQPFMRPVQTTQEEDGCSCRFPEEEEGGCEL

[4] = target: T3, human OX40 expressed on DO11.10 cells (DO11.10-hOX40) (human, UniProt P43489 29-277); experiment: cell-based or functional assay
T3 sequence: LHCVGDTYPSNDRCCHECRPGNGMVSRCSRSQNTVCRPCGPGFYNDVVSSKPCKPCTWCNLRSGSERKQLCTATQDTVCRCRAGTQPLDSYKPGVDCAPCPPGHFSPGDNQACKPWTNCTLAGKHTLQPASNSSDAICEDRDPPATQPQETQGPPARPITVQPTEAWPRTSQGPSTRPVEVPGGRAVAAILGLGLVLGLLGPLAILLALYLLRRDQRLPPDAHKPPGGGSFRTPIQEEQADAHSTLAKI

[5] = target: T4, hFcγR2a (R&D Systems 1330-CD-050/CF) (human, UniProt P12318 36-218, limits assumed); experiment: SPR, antibody 100 nM on OX40-his chip co-injected with FcγR 500 nM
T4 construct: Bought; also called FcγRIIa
T4 sequence (looked up): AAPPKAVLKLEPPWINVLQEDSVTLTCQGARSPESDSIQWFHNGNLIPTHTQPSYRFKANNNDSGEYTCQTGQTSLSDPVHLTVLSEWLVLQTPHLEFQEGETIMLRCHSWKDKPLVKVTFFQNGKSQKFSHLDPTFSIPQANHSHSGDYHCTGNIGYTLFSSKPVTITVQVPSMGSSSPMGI
Experimental: (§3) Binding was tested on a Biacore 3000 instrument (GE Healthcare). Human OX40 (BPS Bioscience cat no 71310) and human CD137 (produced in house) biotinylated his-tagged antigens were coated onto an SA chip (GE Healthcare cat no BR100398) at 2 μM concentration. Human OX40 and human CD137 were coated on separate flow cells, while another flow cell was left blank for background subtraction. Regeneration conditions were determined to be 12 μl aqueous 10 mM glycine-HCl at pH2.0 at 20 μl/min flow rate. Antibodies (see Table 8) and human FcγRs (see Table 8) were diluted to 100 nM (antibodies) or 500 nM (human FcγRs) in HBS-P (0.01 M HEPES pH 7.4, 0.15 M NaCl, 0.005% v/v Surfactant P20, GE Healthcare, BR-1003-68) and co-injected at 20 μl/min flow rate and the dissociation was followed for 5 min.
(§4) Data analysis was performed with BiaEvaluation software version 3.2 RC1 by referencing against the blank flow cell and aligning the curves after the association of the antibody. Values for binding response at the end of the association phase were generated by subtracting the […] to normalize the effect of the antibody binding to the OX40 and CD137 receptors.

[6] = target: T5, hFcγR2b (R&D Systems 1460-CD-050/CF) (human, UniProt P31994 46-217, limits assumed); experiment: as above
T5 construct: Bought; also called FcγRIIb
T5 sequence (looked up): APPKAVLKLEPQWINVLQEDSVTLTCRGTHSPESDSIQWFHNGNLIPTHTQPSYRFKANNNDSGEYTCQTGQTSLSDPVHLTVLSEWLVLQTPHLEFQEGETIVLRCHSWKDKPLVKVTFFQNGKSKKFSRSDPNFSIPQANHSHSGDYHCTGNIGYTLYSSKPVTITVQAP
Experimental: as §3, §4

[7] = target: T6, hFcγR1 (R&D Systems 1257-FC-050/CF) (human, UniProt P12314 16-288); experiment: as above
T6 construct: Bought; also called FcγRI
T6 sequence (P12314 16-288 limits assumed): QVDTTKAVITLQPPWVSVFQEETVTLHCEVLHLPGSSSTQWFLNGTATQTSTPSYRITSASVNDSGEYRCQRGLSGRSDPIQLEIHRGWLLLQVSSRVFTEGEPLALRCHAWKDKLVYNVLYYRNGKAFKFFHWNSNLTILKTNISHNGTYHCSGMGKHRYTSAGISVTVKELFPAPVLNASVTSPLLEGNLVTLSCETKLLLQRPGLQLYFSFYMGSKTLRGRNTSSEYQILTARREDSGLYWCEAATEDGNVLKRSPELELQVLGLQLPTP
Experimental: as §3, §4

[8] = target: T7, hFcγR3a (R&D Systems 4325-FC-050/CF) (human, UniProt P08637 17-208); experiment: as above
T7 construct: Bought; In the ADCC bioassay FcγRIIIa stood on engineered Jurkat cells; also called FcγRIIIa
T7 sequence (P08637 17-208 limits assumed): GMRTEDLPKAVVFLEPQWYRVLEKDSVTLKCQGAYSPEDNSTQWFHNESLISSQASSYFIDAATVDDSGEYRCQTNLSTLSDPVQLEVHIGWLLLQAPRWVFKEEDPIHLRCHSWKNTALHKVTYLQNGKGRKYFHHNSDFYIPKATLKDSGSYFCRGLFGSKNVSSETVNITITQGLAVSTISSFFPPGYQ
Experimental: as §3, §4

- Kd [1]: 0.15 nM
- Kd [2]: 0.17 nM
- CD8+ T cell activation assay, hIL-2 release EC50, crosslinked [3]: 1.98 nM
- CD8+ T cell activation assay, hIL-2 release EC50, no crosslinker [3]: 0.118 nM
- CD4+ T cell activation assay, hIL-2 release EC50, crosslinked [4]: 0.0833 nM
- CD4+ T cell activation assay, hIL-2 release EC50, no crosslinker [4]: 0.113 nM
- binding response at end of association phase of FcγR [5]: 37.4 RU
- binding response at end of association phase of FcγR [6]: 34.3 RU
- binding response at end of association phase of FcγR [7]: 238 RU
- binding response at end of association phase of FcγR [8]: 31.4 RU
B1: FS20-22-49AA/FS30-10-16 (bispecific antibody, human IgG1, kappa, L234A L235A)
heavy: EVQLLESGGGLVQPGGSLRLSCAASGFTFSSYDMSWVRQAPGKGLEWVSDIDPTGSKTDYADSVKGRFTISRDNSKNTLYLQMNSLRAEDTAVYYCARDLLVYGFDYWGQGTLVTVSSASTKGPSVFPLAPSSKSTSGGTAALGCLVKDYFPEPVTVSWNSGALTSGVHTFPAVLQSSGLYSLSSVVTVPSSSLGTQTYICNVNHKPSNTKVDKKVEPKSCDKTHTCPPCPAPEAAGGPSVFLFPPKPKDTLMISRTPEVTCVVVDVSHEDPEVKFNWYVDGVEVHNAKTKPREEQYNSTYRVVSVLTVLHQDWLNGKEYKCKVSNKALPAPIEKTISKAKGQPREPQVYTLPPSRDEYWDQEVSLTCLVKGFYPSDIAVEWESNGDEQFAYKTTPPVLDSDGSFFLYSKLTVDQYRWNPADYFSCSVMHEALHNHYTQKSLSLSPG
light: EIVLTQSPGTLSLSPGERATLSCRASQSVSSSYLAWYQQKPGQAPRLLIYGASSRATGIPDRFSGSGSGTDFTLTISRLEPEDFAVYYCQQSYSYPVTFGQGTKVEIKRTVAAPSVFIFPPSDEQLKSGTASVVCLLNNFYPREAKVQWKVDNALQSGNSQESVTEQDSKDSTYSLSSTLTLSKADYEKHKVYACEVTHQGLSSPVTKSFNRGEC
notes: IgG1 with LALA; also called OX40/CD137 mAb^2; copies: 2 + 2

Reference: US20220048996A1 (F STAR BETA, published 2022)
